Paper PMC7419741 (QRB Discovery, 2020)

Molecular target: T1, IL8
T1 construct: interleukin 8 (CXCL8), ligand of CXCR2
Experiment: MST; 5 nM NT647-labelled receptor-Fc against a gradient of ligand; 1x PBS, 10 mM DTT, arginine at different concentrations; Monolith NT.115 pico, 25°C; data from the early T-Jump period; Kd model (law of mass action)
Conditions: both partners purified

B1: CXCR2^QTY–Fc (Fc fusion)
chain: MEDFNMESDSFEDFWKGEDLSNYSYSSTLPPFLLDAAPCEPESLEINKYYTTTTYAQTYQQSQQGNSQTMQTTQYSRVGRSVTDTYQQNQAQADQQYAQTQPTWAASKVNGWIFGTFLCKTTSQQKETNYYSGTQQQACTSTDRYLAIVHATRTLTQKRYLVKYTCQSTWGQSQQQAQPTQQYRRTVYSSNVSPACYEDMGNNTANWRMQQRTQPQSYGYTTPQQTMQYCYGFTLRTLFKAHMGQKHRAMRTTYATTQTYQQCWQPYNQTQQADTLMRTQVIQETCERRNHIDRAQDATETQGTQHSCQNPQTYAFIGQKFRHGLLKILAIHGLISKDSLPKDSRPSFVGSSSGHTSTTL
modifications: NT647 fluorescent dye (Monolith NT protein labelling kit RED-NHS)
- Kd: 60.3 ± 21 nM
